The labels stand for the following.
B1: Trx-MC-FN-030, Thioredoxin-A fusion of cystine-knot miniprotein MC-FN-030 (designed binder)
chain: WKCQPTNGYRIRCRRDSDCPGDCICRGNGYCG
B2: Trx-MC-FN-050, Thioredoxin-A fusion of cystine-knot miniprotein MC-FN-050 (designed binder)
chain: SVCKNVSIMRIRLCRRDSDCPGACICRGNGYCG
B3: Trx-MC-FN-040, Thioredoxin-A fusion of cystine-knot miniprotein MC-FN-040 (designed binder)
chain: SVCAHYNTIRVRLCRRDSDCPGACICRGNGYCG
B4: Trx-MC-FN-010, Thioredoxin-A fusion of cystine-knot miniprotein MC-FN-010 (designed binder)
chain: PMCTQRKNRIRLCRRDSDCTGACICRGNGYCG
B5: Trx-MC-FN-060, Thioredoxin-A fusion of cystine-knot miniprotein MC-FN-060 (designed binder)
chain: SVCKQANFVRIRLCRRDSDCPGACICRGNGYCG

In one assay the target is FN-67B89, human fibronectin EDB flanked by its surrounding type III domains (human). The experiment in a line: ELISA. (In general: An ELISA detects its analyte on a solid surface through an enzyme-linked reagent.)
Chain of FN-67B89, human fibronectin EDB flanked by its surrounding type III domains (human) (chain, as listed by the source): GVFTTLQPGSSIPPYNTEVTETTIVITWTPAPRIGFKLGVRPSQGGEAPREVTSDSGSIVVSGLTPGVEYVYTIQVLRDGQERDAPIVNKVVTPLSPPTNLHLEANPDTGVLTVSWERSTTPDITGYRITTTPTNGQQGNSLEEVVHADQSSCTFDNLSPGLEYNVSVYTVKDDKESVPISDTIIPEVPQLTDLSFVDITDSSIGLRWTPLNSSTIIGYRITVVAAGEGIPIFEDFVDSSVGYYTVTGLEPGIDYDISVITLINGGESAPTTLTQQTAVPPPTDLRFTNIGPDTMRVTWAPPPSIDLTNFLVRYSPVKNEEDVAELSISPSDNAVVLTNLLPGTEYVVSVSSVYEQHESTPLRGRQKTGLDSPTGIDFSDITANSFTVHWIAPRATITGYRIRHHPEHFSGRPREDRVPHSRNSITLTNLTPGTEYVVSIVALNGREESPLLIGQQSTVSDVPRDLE
For B1, the affinity, expressed as Kd, was 232 nM.
As to B2, the dissociation constant Kd (in general, the equilibrium constant for the complex coming apart) was determined as 67.8 nM.
The same measure, in the same setting: in the case of B3 it was 29.4 nM.
On the same count and under the same terms, under B4 stands 10.5 nM; under B5, 20.4 nM.

The next assay deals with FN-B, recombinant human fibronectin extra domain B (EDB) as a single domain (human). In words: ELISA.
Chain of FN-B, recombinant human fibronectin extra domain B (EDB) as a single domain (human) (chain, as listed by the source): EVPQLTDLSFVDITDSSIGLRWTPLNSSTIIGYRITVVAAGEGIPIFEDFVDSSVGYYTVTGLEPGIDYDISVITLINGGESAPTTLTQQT
As to B1, the Kd was found to be 234 nM.
B2: the dissociation constant Kd is 40.5 nM.
As for B3, the Kd amounted to 24 nM.
On the same count and under the same terms, under B4 stands 6.07 nM; under B5, 10.3 nM.

Values taken from publication PMC6962393 (2020).
